Starred links: 1 amine or outer side, 2 acyl side, 3 side chain; linkers in the order of their positions; H or OH if unused. Non-standard residues stand in square brackets, D forms with d. Residues, ends and D or L forms follow the SMILES beside them. *: point of attachment. Phe(4-NO2) = N[C@@H](Cc1ccc([N+](=O)[O-])cc1)C(=O)O; EDANS = O=S(=O)(O)c1cccc2c(NCCN*)cccc12; Suc = O=C(CCC(=O)[*:2])[*:1]; 2Abz = Nc1ccccc1C(=O)O
Key:
[1] = solubility in aqueous buffer; format: physicochemical
ACE = conditions: from literature, cited from earlier work; for Km: Ref. [16]-[20]
[2] = substrate: O=C(CCC(=O)N[C@@H](Cc1ccccc1)C(=O)N[C@@H](Cc1c[nH]c2ccccc12)C(=O)N[C@@H](Cc1ccccc1)C(=O)O)NCCNc1cccc2c(S(=O)(=O)O)cccc12; assay: continuous spectrofluorometric assay of hydrolysis of fluorogenic substrates by ACE (kinetic parameters); format: biochemical, rabbit; conditions: other: 0.05M Hepes buffer pH 8.2, 0.2M NaCl, 1M Na2SO4, Lineweaver-Burk, ex 286 nm, em 360 nm, 37.0 °C
Experimental: (§1) Fluorescence data were recorded on a HITACHI Model F2000 fluorescence spectrophotometer (Tokyo, Japan) set at wavelengths of 286 nm (excitation)and 360 nm (emission). The rates of enzymatic hydrolysis of the fluorogenic compounds ES-FWF, ES-FWG, ES-FWH, ES-FWK, ES-FWL and ES-FHW were monitored fluorospectrophotometrically as follows: A solution of ACE was prepared at 1.3×10^-2 units/ml (concentration of enzyme was estimated by using the Bio-Rad protein assay kit with bovine serum albumin as a standard). […] Activity was assayed with hippuryl-L-histidyl-L-leucine as a substrate. One unit of enzyme activity is the amount required to catalyze the formation of 1.0 μmol of hippuric acid per minute (in 50 mM Hepes, pH 8.3, and 0.3M NaCl at 37° C.). For fluorescence measurement, 20 μl of enzyme solution was added to 0.5 ml substrate solution (2×10^-6 -6.5×10^-5 M) in 0.05M Hepes buffer, pH 8.2, containing 0.2M NaCl and 1M Na2 SO4, placed in an optical cell. […] The increase in fluorescence (emission at 360 nm, excitation at 286 nm) with time, in the presence of the enzyme, was recorded continuously. Since the product (and perhaps the substrate as well) is subject to photodecomposition, the slit width of the excitation monochromator must not be too large. Alternatively, the reaction can be monitored automatically by pulse illumination with a time interval of 150, sec, as shown in FIG. 1.
(§2) Dependence of the rate of hydrolysis on substrate concentration was established by initial rate measurements (within the first 10% of hydrolysis). The slope of the line was translated into molar concentrations of the released dipeptides using a calibration curve constructed by fluorescence measurements of solutions containing authentic dipeptide under identical conditions. Km values were calculated by the method of Lineweaver-Burk plots. Five points with approximately equidistance on the 1/[S] abscissa were obtained from the average of two independent measurements. Kinetic parameters for other substrates were also obtained by similar procedures.
(§3) Kinetic parameters of ES-FWF, ES-FWG, ES-FWH, ES-FWK, ES-FWL and ES-FHW for ACE were obtained by continuous spectrofluorometric assay, and the results are listed in Table I. In order to compare the characteristics of the ES-peptides with those of previously reported fluorogenic substrates, the kinetic parameters from literatures were collected for comparison.

[3] = substrate: O=C(O)CNC(=O)[C@H](Cc1c[nH]c2ccccc12)NC(=O)[C@H](Cc1ccccc1)NC(=O)CCC(=O)NCCNc1cccc2c(S(=O)(=O)O)cccc12; assay: as above; format: biochemical, rabbit; conditions: other: 0.05M Hepes buffer pH 8.2, 0.2M NaCl, 1M Na2SO4, Lineweaver-Burk, ex 286 nm, em 360 nm, 37.0 °C
Experimental: as §1, §2, §3

[4] = substrate: CC(C)C[C@H](NC(=O)[C@H](Cc1c[nH]c2ccccc12)NC(=O)[C@H](Cc1ccccc1)NC(=O)CCC(=O)NCCNc1cccc2c(S(=O)(=O)O)cccc12)C(=O)O; assay: as above; format: biochemical, rabbit; conditions: other: 0.05M Hepes buffer pH 8.2, 0.2M NaCl, 1M Na2SO4, Lineweaver-Burk, ex 286 nm, em 360 nm, 37.0 °C
Experimental: as §1, §2, §3

[5] = substrate: O=C(CCC(=O)N[C@@H](Cc1ccccc1)C(=O)N[C@@H](Cc1c[nH]cn1)C(=O)N[C@@H](Cc1c[nH]c2ccccc12)C(=O)O)NCCNc1cccc2c(S(=O)(=O)O)cccc12; assay: as above; format: biochemical, rabbit; conditions: other: 0.05M Hepes buffer pH 8.2, 0.2M NaCl, 1M Na2SO4, Lineweaver-Burk, ex 286 nm, em 360 nm, 37.0 °C
Experimental: as §1, §2, §3

[6] = substrate: NCCCC[C@H](NC(=O)[C@H](Cc1c[nH]c2ccccc12)NC(=O)[C@H](Cc1ccccc1)NC(=O)CCC(=O)NCCNc1cccc2c(S(=O)(=O)O)cccc12)C(=O)O; assay: as above; format: biochemical, rabbit; conditions: other: 0.05M Hepes buffer pH 8.2, 0.2M NaCl, 1M Na2SO4, Lineweaver-Burk, ex 286 nm, em 360 nm, 37.0 °C
Experimental: as §1, §2, §3

[7] = substrate: O=C(CCC(=O)N[C@@H](Cc1ccccc1)C(=O)N[C@@H](Cc1c[nH]c2ccccc12)C(=O)N[C@@H](Cc1c[nH]cn1)C(=O)O)NCCNc1cccc2c(S(=O)(=O)O)cccc12; assay: as above; format: biochemical, rabbit; conditions: other: 0.05M Hepes buffer pH 8.2, 0.2M NaCl, 1M Na2SO4, Lineweaver-Burk, ex 286 nm, em 360 nm, 37.0 °C
Experimental: as §1, §2, §3

Molecule `O=C(CCC(=O)N[C@@H](Cc1ccccc1)C(=O)N[C@@H](Cc1c[nH]c2ccccc12)C(=O)N[C@@H](Cc1c[nH]cn1)C(=O)O)NCCNc1cccc2c(S(=O)(=O)O)cccc12` [ES-FWH] ({EDANS-Suc}-Phe-Trp-His-OH) has a solubility [1] of 7000 to 40000 µg/mL.

For `O=C(O)CNC(=O)[C@H](Cc1c[nH]c2ccccc12)NC(=O)CNC(=O)OCc1ccc([N+](=O)[O-])cc1` [Z(NO2)-GWG, p-nitrobenzyloxycarbonylglycyl-L-tryptophyl-glycine], the Km (ACE) is given as 900 µM.

For `O=C(O)CNC(=O)[C@H](Cc1c[nH]c2ccccc12)NC(=O)[C@H](Cc1ccccc1)NC(=O)CCC(=O)NCCNc1cccc2c(S(=O)(=O)O)cccc12` [ES-FWG] ({EDANS-Suc}-Phe-Trp-Gly-OH), the solubility [1] was 7000 to 40000 µg/mL.

`O=C(CCC(=O)N[C@@H](Cc1ccccc1)C(=O)N[C@@H](Cc1c[nH]c2ccccc12)C(=O)N[C@@H](Cc1ccccc1)C(=O)O)NCCNc1cccc2c(S(=O)(=O)O)cccc12` [ES-FWF] ({EDANS-Suc}-Phe-Trp-Phe-OH) gave a solubility [1] of 7000 to 40000 µg/mL.

Molecule `CC(C)C[C@H](NC(=O)[C@H](Cc1c[nH]c2ccccc12)NC(=O)[C@H](Cc1ccccc1)NC(=O)CCC(=O)NCCNc1cccc2c(S(=O)(=O)O)cccc12)C(=O)O` [ES-FWL] ({EDANS-Suc}-Phe-Trp-Leu-OH) has a solubility [1] of 7000 to 40000 µg/mL.

In the case of `Nc1ccccc1C(=O)NCC(=O)N[C@@H](Cc1ccc([N+](=O)[O-])cc1)C(=O)N1CCC[C@H]1C(=O)O` [Abz-GF(NO2)P, o-aminobenzoyl-glycyl-p-nitro-L-phenylalanyl-L-proline] (H-[2Abz]G[Phe(4-NO2)]P-OH), the Km (ACE) is listed as 190 µM, the kcat (ACE; Ref. [17]-[20]) is listed as 1.5 s⁻¹ and the kcat/Km (ACE; Ref. [17]-[20]) is listed as 7.7 × 10^3 M^-1 S^-1.

For `O=C(CCC(=O)N[C@@H](Cc1ccccc1)C(=O)N[C@@H](Cc1c[nH]cn1)C(=O)N[C@@H](Cc1c[nH]c2ccccc12)C(=O)O)NCCNc1cccc2c(S(=O)(=O)O)cccc12` [ES-FHW] ({EDANS-Suc}-Phe-His-Trp-OH), the solubility [1] was 7000 to 40000 µg/mL.

Work on `NCCCC[C@H](NC(=O)[C@H](Cc1c[nH]c2ccccc12)NC(=O)[C@H](Cc1ccccc1)NC(=O)CCC(=O)NCCNc1cccc2c(S(=O)(=O)O)cccc12)C(=O)O` [ES-FWK] ({EDANS-Suc}-Phe-Trp-Lys-OH) yielded a solubility [1] of 7000 to 40000 µg/mL.

B1: ACE (from rabbit lung, Sigma Chemical Co.) (Oryctolagus cuniculus) (protein)
chain: TLDPGLLPGDFAADEAGARLFASSYNSSAEQVLFRSTAASWAHDTNITAENARRQEEEALLSQEFAEAWGKKAKELYDPVWQNFTDPELRRIIGAVRTLGPANLPLAKRQQYNSLLSNMSQIYSTGKVCFPNKTASCWSLDPDLNNILASSRSYAMLLFAWEGWHNAVGIPLKPLYQEFTALSNEAYRQDGFSDTGAYWRSWYDSPTFEEDLERIYHQLEPLYLNLHAYVRRVLHRRYGDRYINLRGPIPAHLLGNMWAQSWESIYDMVVPFPDKPNLDVTSTMVQKGWNATHMFRVAEEFFTSLGLLPMPPEFWAESMLEKPEDGREVVCHASAWDFYNRKDFRIKQCTQVTMDQLSTVHHEMGHVQYYLQYKDQPVSLRRANPGFHEAIGDVLALSVSTPAHLHKIGLLDHVTNDTESDINYLLKMALEKIAFLPFGYLVDQWRWGVFSGRTPSSRYNFDWWYLRTKYQGICPPVVRNETHFDAGAKFHIPSVTPYIRYFVSFVLQFQFHQALCMEAGHQGPLHQCDIYQSTRAGAKLRAVLQAGCSRPWQEVLKDMVASDALDAQPLLDYFQPVTQWLQEQNERNGEVLGWPEYQWRPPLPNNYPEGIDLVTDEAEASRFVEEYDRSFQAVWNEYAEANWNYNTNITTEASKILLQKNMQIANHTLTYGNWARRFDVSNFQNATSKRIIKKVQDLQRAVLPVKELEEYNQILLDMETIYSVANVCRVDGSCLQLEPDLTNLMATSRKYDELLWVWTSWRDKVGRAILPYFPKYVEFTNKAARLNGYVDAGDSWRSMYETPTLEQDLERLFQELQPLYLNLHAYVGRALHRHYGAQHINLEGPIPAHLLGNMWAQTWSNIYDLVAPFPSASTMDATEAMIKQGWTPRRMFEEADKFFISLGLLPVPPEFWNKSMLEKPTDGREVVCHASAWDFYNGKDFRIKQCTTVNMEDLVVVHHEMGHIQYFMQYKDLPVALREGANPGFHEAIGDVLALSVSTPKHLHSINLLSSEGGGYEHDINFLMKMALDKIAFIPFSYLVDEWRWRVFDGSITKENYNQEWWSLRLKYQGLCPPAPRSQGDFDPGAKFHIPSSVPYIRYFVSFIIQFQFHEALCKAAGHTGPLHTCDIYQSKEAGKRLADAMKLGYSKPWPEAMKVITGQPNMSASAMMNYFKPLMDWLLTENGRHGEKLGWPQYTWTPNSARSEGSLPDSGRVNFLGMNLDAQQARVGQWVLLFLGVALLLASLGLTQRLFSIRYQSLRQPHHGPQFGSEVELRHS
notes: ACE (from rabbit lung, Sigma Chemical Co.); purchased Sigma Chemical Co; host or cells: rabbit lung (tissue)
In the case of B1, the Km [2] is reported as 4.5 µM, the kcat [2] is reported as 2.1 s⁻¹ and the kcat/Km [2] is reported as 4.6 × 10^5 M^-1 S^-1. For the same molecule, the Km [3] was 23 µM, the kcat [3] was 2.0 s⁻¹ and the kcat/Km [3] was 8.9 × 10^4 M^-1 S^-1. The Km [4] was 2.7 µM, the kcat [4] was 0.9 s⁻¹ and the kcat/Km [4] was 3.2 × 10^5 M^-1 S^-1. For the same molecule, the Km [5] was 15 µM, the kcat [5] was 2.0 s⁻¹ and the kcat/Km [5] was 1.3 × 10^5 M^-1 S^-1. For the same molecule, the Km [6] was 24 µM, the kcat [6] was 3.8 s⁻¹ and the kcat/Km [6] was 1.6 × 10^5 M^-1 S^-1. For the same molecule, the Km [7] was 4.9 µM, the kcat [7] was 0.8 s⁻¹ and the kcat/Km [7] was 1.7 × 10^5 M^-1 S^-1.
